In publication PMC4013577:

What was measured:
anti-hIgG (IgG2a) [1] = assay: SPR; Autolab ESPRIT, room temperature, PBS pH 7.4; anti-hIgG adsorbed on the Cal-4 derivative 1 (ethylester) SAM on gold, blocked with 0.1 mg/mL BSA, then 100 μL of 10 μg/mL protein G
anti-hIgG (IgG2a) [2] = assay: SPR; Autolab ESPRIT, room temperature, PBS pH 7.4; anti-hIgG adsorbed on the Cal-4 derivative 2 (carboxylic acid) SAM on gold, blocked with 0.1 mg/mL BSA, then 100 μL of 10 μg/mL protein G

## Protein G (from UniProt P06654 34-417) (natural protein)
anti-hIgG (IgG2a) [1]
  SPR angle shift: 32.6 m°
anti-hIgG (IgG2a) [2]
  SPR angle shift: 94 m°
